The values below come from paper doi:10.1101/2024.09.28.615595.

This data set concerns the target CsrA (Escherichia coli (K-12 MG1655?)) (UniProt P69913). In words: EMSA. The conditions noted are these: binding buffer, pH and temperature not given.

CsrA (Escherichia coli (K-12 MG1655?)), sequence (P69913 whole entry): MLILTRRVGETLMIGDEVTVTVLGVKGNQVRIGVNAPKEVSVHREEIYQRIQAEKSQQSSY

As for “GGGAGAACGGUUAACUUAACGGAUGUUUCGCGGUGUGGGUGAGCAUGAUGGUUCACCGGCAUCUCAAUUCUCAUUUAAACGUACCUGCAGCGAAUGAAUACUGAAGCCACGCACGACCAAAAUGAAGCACUUACUACCGGCGCUCGCCUGCGUAAUGCUCGCGAACAACUAGGACUUAGUCAGCAGGCCGUUG [rodZ leader]”, the binding result is listed as “binds”. As for “GGGAGAUUUGUGUUUAUCCCGAUUUUCGCGAUCGCAGCCGGAGUGGCGCAAUCCCUGCAAUACUUAAAUCGGUAUCAUGUGAUACGCGAGCCUCCGGAGCAUAUUUUGAACAGGUUACCUUCGAGCGCAUCGGCUUUAGCGUGCAGCGCCCACGCCCUGAAUCUCAUUGAGAAGCGAACGCUGGAUCAUGAGGAGAUGAAAGCAC [patA leader]”, the binding entry is recorded as “binds”. Still for that read-out and setting: to “GGGAGGUAAUUUUGGUUUUCCCGGCCAAAAAUGGACAAUAACCACCAGGAAAAGGAGACGGAAUGCAUCACGCCACCCCGCUUAUCACCACCAUUGUUGGCGGCCUUGUGCUCGCCUUUAUCCUCGGCAUGCUGGCCAAUAAACUACGUAUUUCUCCUCUGG [ybaL leader]” belongs “binds”; to “GGGAGGUUUGCUUUUAGGUUAGCGACCGAAAAUAUAAAUGAUAAUCAUUAUUAAAGCCUUUAUCAUUUUGUGGAGGAUGAUAUGGAUACGUCACUGGCUGAGGAAGUACAGCAGACCAUGGCAACACUUGCGCCCAAUCGCUUUUUCUUUAUGUCGCCGUACCGCAGUUUUACGACGUCAG [entC leader]”, “binds”. On to “GGGAUAAUGCGCUUUCUUUAGCCGUUAAUAUCCACCGGCAUGGCUGCGCGCCGUGCCGGUUCCUUCUUGCUUGGCGUCACUCUUUGAAGACGCAUUCUGCAGUUUACGAUGACUACUAUUGUUGACAGCAAUCUGCCGGUUGCCCGCCCGUCAUGGGAUCAUUCUCGUCUGGAAUCACGCAUUGUGCAUCUCGGUUGCGGGGCGUUUCGCAUGC [uxuB 5' UTR mutant (UPSTR mut)]”, for which the K half amounted to 144 nM.
